# T1: D2 domain of human LAG-3 (human, UniProt P18627 169-260)
# T1 sequence: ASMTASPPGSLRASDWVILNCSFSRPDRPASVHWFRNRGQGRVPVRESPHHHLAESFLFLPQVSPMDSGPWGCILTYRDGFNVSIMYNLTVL
# What was measured:
# D2 domain of human LAG-3 = molecular target: T1, D2 domain of human LAG-3; test: not described
# [1] = molecular target: HA glycoprotein of A/Puerto Rico/8/1934 (H1N1) influenza virus, purified (influenza virus A/Puerto Rico/8/1934 …, UniProt P03452 18-528); test: ELISA, plate coated with the fusion protein
Binder,binding result (D2 domain of human LAG-3),binding result [1]
"23DKTYB19 (antibody, V domains shown) VH: QVQLKQSDAELVKPGASVKISCKVSGYTFTDHTIHWMKQRPEQGLEWIGYIYPRDGSTKYNEKFKGKATLTADKSSSTAYMQLNSLTSEDSAVCFCARTGSYAMDYWGQGTSVTVSS VL: DIVMTQSPASLAVSLGQRATISCKASQSVDYDGDSYMNWYQQKPGQPPKLLIYAASNLESGIPARFSGSGSGTDFTLNIHPVEEEDAATYYCQQSNEDPYTFGG",binds,–
"23DKTYB4 (antibody, V domains shown) VH: QVQLKQSDDELVKPGASVKISCKVSGYTFTDHTIHWMKQRPEQGLEWIGYIYPRDGSTKYNEKFKGKATLTADKSSSTAYMQLNSLTSEDSAVYFCARRRSYYGSSFYFDVWGTGTTVSV VL: DIQMTQSTSSLSASLGDRVTISCRASQDISNYLNWYQQKPDGTVKLLIYYTSRLHSGVPSRFSGSGSGTDYSLTISNLEQEDIATYFCQQGNTLPWTFGGGTK",binds,–
KIR2DL1 fused to the IgG1 Fc domain (Fc fusion) HEGVHRKPSLLAHPGRLVKSEETVILQCWSDVMFEHFLLHREGMFNDTLRLIGEHHDGVSKANFSISRMTQDLAGTYRCYGSVTHSPYQVSAPSDPLDIVIIGLYEKPSLSAQLGPTVLAGENVTLSCSSRSSYDMYHLSREGEAHERRLPAGPKVNGTFQADFPLGPATHGGTYRCFGSFHDSPYEWSKSSDPLLVSVTGNPSNSWPSPTEPSSKTGNPRHLH,–,no binding
